Data: the supplement of paper PMC9170038

Tested on: MS2 coat protein
Experiment: apparent KD of MS2 coat protein; designed switch direction (-1 OFF switch, 1 ON switch): -1; higher = weaker reporter binding
Summary of the method: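 On Illumina chips, designed RNA switches with common flanks were made by stalled E. coli RNA polymerase. Titrations with SNAP-549-labelled MS2 coat protein, doubling from 0.7 or 1.5 nM to 3 µM, were done with no input, with 200 uM small-molecule ligand, or with an oligonucleotide input. Apparent KD is the median per design over clusters, from curve fits of normalised cluster fluorescence.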

[1] = input ligand: microRNA oligo, concentration not stated
[2] = Eterna round: R95, input ligand: FMN 200 uM
[3] = Eterna round: R95, input ligand: microRNA oligo, concentration not stated
[4] = Eterna round: R95, input ligand: none

GAACUGAAGCAAAGCUUUAGUCGUACAUGAGGAUCACCCAUGUAGGAUAUGGUAGGCAAAGCUUACUAGAAGGACAGAGUGAUC [Mat - Exclusion NG 3 - Mod of JL - D70] (Eterna round: R96, puzzle: Exclusion NG 3)
apparent KD of MS2 coat protein (input ligand: FMN 200 uM): 338 nM
apparent KD of MS2 coat protein [1]: 336 nM
apparent KD of MS2 coat protein (input ligand: none): 336 nM

GAAGAAGAGAGAAUAGAAAACAUGAGGAUCACCCAUGUGAGAAGAUGAGGGUGUAGCAGGCUUUUUGCUCGUCUUAU (puzzle: Sensor v3, turn-off variant 1)
apparent KD of MS2 coat protein [2]: 32.5 nM
apparent KD of MS2 coat protein [3]: 119 nM
apparent KD of MS2 coat protein [4]: 31.2 nM

GAAUAGAGAGGAUAUGCGAAGUAGGUAGUACGAUAUAUCUGACAUGAGGAUCACCCAUGUAGAAGGCUCAGAUC [EX2 #5] (Eterna round: R97, puzzle: Exclusion 2)
apparent KD of MS2 coat protein (input ligand: FMN 200 uM): 34.4 nM
apparent KD of MS2 coat protein (input ligand: none): 40.3 nM

GAAUAGGCAGGAUAUACAUGAGGAUCACCCAUGUGCUUGCGCUAGGCACGUGAACAACGUAGAAGGGCCUAGAC [ChP 13.04.2015 #11] (puzzle: Exclusion 3)
apparent KD of MS2 coat protein [3]: 12.1 nM

GACAGACGAGCGUGAGCCGACAUGAGGAUCACCCAUGUGCUCGUCUUAUAACGUACUGUCACGUUAGUGAUAGUGCG [Sensor v3, turn-off variant 1 (MOD of Eli's v1-13 v.4)] (puzzle: Sensor v3, turn-off variant 1)
apparent KD of MS2 coat protein [2]: 54.3 nM
apparent KD of MS2 coat protein [3]: 42.7 nM
apparent KD of MS2 coat protein [4]: 56.7 nM

GACAGUCGAGGAUAUACGAUCGUGCUUCGGCACGUAAGAUCACAUGAGGAUCACCCAUGUAGAAGGCGACUGUC [Mod 6 - Jieux - Exclusion 2] (Eterna round: R97, puzzle: Exclusion 2)
apparent KD of MS2 coat protein (input ligand: FMN 200 uM): 234 nM
apparent KD of MS2 coat protein (input ligand: none): 31.7 nM

GACAGUUCGGAGGAUAUCCAGAACUAAGAACAAGGAGAAGGCCGAACAUGAGGAUCACCCAUGUGUGUUCCCAU [Isdiorzaar] (puzzle: Exclusion 6)
apparent KD of MS2 coat protein [2]: 19.4 nM
apparent KD of MS2 coat protein [3]: 30.7 nM
apparent KD of MS2 coat protein [4]: 27 nM

GACAUCGCAGGAUAUUAGGGUUUGUACAUGAGGAUCACCCAUGUUAAUUGGGUUAAUGUUUAAGAAGGGCGGUGUC [JR_EX5_Sub017] (Eterna round: R97, puzzle: Exclusion 5)
apparent KD of MS2 coat protein (input ligand: FMN 200 uM): 528 nM
apparent KD of MS2 coat protein (input ligand: none): 383 nM

GACAUGAGGAUCACCCAUGUAACCUCAUGUAGGAAGGAGAGUAAGGAUAUACAUGAAGGAAUGAAGUAGAAGGUGCAUAGAGAG [Default title] (Eterna round: R96, puzzle: Exclusion NG 3)
apparent KD of MS2 coat protein (input ligand: FMN 200 uM): 605 nM
apparent KD of MS2 coat protein [1]: 377 nM
apparent KD of MS2 coat protein (input ligand: none): 586 nM

GACCAGGCAGGAUAUACAUGAGGAUCACCCAUGUGUCUGCGUUGGGCACGUGAACACGGUAGAAGGGCCUUGAC [ChP 13.04.2015 #15] (puzzle: Exclusion 3)
apparent KD of MS2 coat protein [3]: 12.8 nM

GACCAGGUAGGAUAUGCUGGGUCGGACUUGAGGAUCACCCAAGUGGCCAAAGUGCGUCCCGCAGAAGGGCCGAAAA [Inanorxeti] (Eterna round: R97, puzzle: Exclusion 5)
apparent KD of MS2 coat protein (input ligand: FMN 200 uM): 81.6 nM
apparent KD of MS2 coat protein (input ligand: none): 827 nM

GACGACUCGUCAGGAUAUGUAAACGAGCAAUUGACAGAAGGGACACUGUCGAGGGUACACAUGAGGAUCACCCAUGUACUCGUC [Eternabot solution 40] (Eterna round: R96, puzzle: Exclusion NG 1)
apparent KD of MS2 coat protein (input ligand: FMN 200 uM): 12.4 nM
apparent KD of MS2 coat protein [1]: 10.3 nM
apparent KD of MS2 coat protein (input ligand: none): 16.1 nM

GACGAGGGAGGAUAUGCACGAGGGAUAUCUGACAUGCCUAUACAUGAGGAUCACCCAUGUAGAAGGCCCAGAUA [Veorleerma] (puzzle: Exclusion 2)
apparent KD of MS2 coat protein [3]: 11.9 nM

GACGUGUAAGGAUAUGAUGUUGCAAACAAGACCCUUAAUCAUUAGAAGGUACAUGAGGAUCACCCAUGUAGGGU [Eternabot (L2) Solution 100] (Eterna round: R97, puzzle: Exclusion 4)
apparent KD of MS2 coat protein (input ligand: FMN 200 uM): 129 nM
apparent KD of MS2 coat protein (input ligand: none): 140 nM

GACUAAACACGAGGAUAUGCCUGGGAAGAACAGGCAGAAGGCGUGACAUGAGGAUCACCCAUGUAGCCGGGCUAUUCUCGUGUG [Orlaes] (Eterna round: R96, puzzle: Exclusion NG 1)
apparent KD of MS2 coat protein (input ligand: FMN 200 uM): 35.4 nM
apparent KD of MS2 coat protein [1]: 20.8 nM
apparent KD of MS2 coat protein (input ligand: none): 29.3 nM

GACUGCUGAGGAUAUACAUGAGGAUCACCCAUGUGCUUCAGCUAGGAGACUAGCAUUGGUAGAAGGUAGUAGUC [LRO-Excl3-03] (puzzle: Exclusion 3)
apparent KD of MS2 coat protein [3]: 10.3 nM

GACUUCUGAGGAUAUACAUAGAUUUACAUGAGGAUCACCCAUGUUCCUCUAUGUAUAAAUGUAGAAGGCAGAAGAG [Mat - Exclusion 5 - JL Mod - D65] (Eterna round: R97, puzzle: Exclusion 5)
apparent KD of MS2 coat protein (input ligand: FMN 200 uM): 70.7 nM
apparent KD of MS2 coat protein (input ligand: none): 19.7 nM

GAGAAACAUGAGGAUCACCCAUGUGAGGAUAUGAAAAAGAAAAGAAAAGAAAGAAGAAUCAGAAGGCACAAAGA [salish99-ex1_r3_084] (puzzle: Exclusion 1)
apparent KD of MS2 coat protein [2]: 28.1 nM
apparent KD of MS2 coat protein [3]: 27.9 nM
apparent KD of MS2 coat protein [4]: 38.9 nM

GAGACACAUGAGGAUCACCCAUGUGAGGAUAUGCGAAGGACCAAAUUAAGAAUUAAAGGCAGAAGGCACAUAAA [Exclusion 1 V4] (puzzle: Exclusion 1)
apparent KD of MS2 coat protein [2]: 36.8 nM
apparent KD of MS2 coat protein [3]: 35.5 nM
apparent KD of MS2 coat protein [4]: 29.3 nM

GAGAUACAUGAGGAUCACCCAUGUGAGGAUAUGAGUCAGUCACGGUGACGUGGCUGACUCAGAAGGCACAAAGG [Mat - Exclusion 1 - JL Mod - D35] (Eterna round: R97, puzzle: Exclusion 1)
apparent KD of MS2 coat protein (input ligand: FMN 200 uM): 88.9 nM
apparent KD of MS2 coat protein (input ligand: none): 150 nM

GAGAUGUGAGGAUAUCUAGACCGCGGAAGAGCUGCGGUCCGAGAGAAGGCACAUGAGGAUCACCCAUGUGAUGA [Attere] (puzzle: Exclusion 4)
apparent KD of MS2 coat protein [3]: 38.4 nM

GAGCCAACAGGAUAUACAUGAGGAUCACCCAUGUGAAUUCGCUACACAGGGAUGAACAGUAGAAGGGUUGGUAU [Eternabot (Original) Solution 49] (Eterna round: R97, puzzle: Exclusion 3)
apparent KD of MS2 coat protein (input ligand: FMN 200 uM): 165 nM
apparent KD of MS2 coat protein (input ligand: none): 229 nM

GAGCUAUGAGGAUAUGCAUAUAUGCGGUUUCGUGUGGUACUACAUGAGGAUCACCCAUGUAGAAGGCGUGGCAG [Mat - Exclusion 2 - Mod of JL - D79] (puzzle: Exclusion 2)
apparent KD of MS2 coat protein [3]: 13.2 nM

GAGCUGUGAGGAUAUACAUGAGGAUCACCCAUGUUAAGGAAGUGGUGUAUAUUGUAGUGUAGAAGGCACUUGUG [JR_Ex3_Sub025] (Eterna round: R97, puzzle: Exclusion 3)
apparent KD of MS2 coat protein (input ligand: FMN 200 uM): 600 nM
apparent KD of MS2 coat protein (input ligand: none): 306 nM

GAGGAGCAAGGAUAUACGAGGAUAUGGAAGGUUGGAGAGUGACAUGAGGAUCACCCAUGUAGAAGGUGCGAGGG [JR_Exclu2_Sub097] (puzzle: Exclusion 2)
apparent KD of MS2 coat protein [3]: 43.4 nM

GAGGCUAAAGGAUAUACAUGAGGAUCACCCAUGUGGAGGAAGGUUAGAUGAGGAGAAGGUAGAAGGUUAGGCGA [JR_Exclu3_Sub093] (puzzle: Exclusion 3)
apparent KD of MS2 coat protein [2]: 29.7 nM
apparent KD of MS2 coat protein [3]: 23.6 nM
apparent KD of MS2 coat protein [4]: 28.6 nM

GAGGGACAUGAGGAUCACCCAUGUGAGGAUAUGGAGAGGAGGAGGGAGGAGGAGGAGGCCAGAAGGCGCAAGAA [THE BEST I guess] (puzzle: Exclusion 1)
apparent KD of MS2 coat protein [2]: 22.6 nM
apparent KD of MS2 coat protein [3]: 28 nM
apparent KD of MS2 coat protein [4]: 46 nM

GAGGGACAUGAGGAUCACCCAUGUGAGGAUAUGUGAGAAGGAUUGGAGAGUGAGUGGGACAGAAGGCGCAAGGG [JR_Exclu1_Sub085] (puzzle: Exclusion 1)
apparent KD of MS2 coat protein [2]: 95.4 nM
apparent KD of MS2 coat protein [3]: 59.9 nM
apparent KD of MS2 coat protein [4]: 78 nM

GAGGGUUAAGGAUAUACAUGAGGAUCACCCAUGUAUGGCAAGCCAUAAUCCUCAUUAAGUAGAAGGUAACCUUC [Edederle] (puzzle: Exclusion 3)
apparent KD of MS2 coat protein [3]: 11.8 nM

GAGUAGAGAGGAUAUGCAAUGAUCAUCGUACGAUGAGGCUGACAUGAGGAUCACCCAUGUAGAAGGCUCUGGUC [EX2 #20] (Eterna round: R97, puzzle: Exclusion 2)
apparent KD of MS2 coat protein (input ligand: FMN 200 uM): 22.5 nM
apparent KD of MS2 coat protein (input ligand: none): 23.3 nM

GAGUAGUAAGGAUAUAGUAGGAGGGAGAAGAGAGGAGAGAACUAGAAGGUACAUGAGGAUCACCCAUGUUGAGA [JR_Exclu4_Sub083] (puzzle: Exclusion 4)
apparent KD of MS2 coat protein [2]: 18.5 nM
apparent KD of MS2 coat protein [3]: 17 nM
apparent KD of MS2 coat protein [4]: 20.4 nM

GAGUGAAGUGCAGGAUAUCUAGAAGGAAGAAGGAGGAAACAUGAGGAUCACCCAUGUAAUCCAUAAGAGAAGGGCGGAGAGGAG [An ugly monster] (Eterna round: R96, puzzle: Exclusion NG 2)
apparent KD of MS2 coat protein (input ligand: FMN 200 uM): 16.3 nM
apparent KD of MS2 coat protein [1]: 14.3 nM
apparent KD of MS2 coat protein (input ligand: none): 18.3 nM

GAGUUAGCGUGAGGAAUAUACAUGAGGAUCACCCAUGUUAGCUAAUAUAUUGCUCGUCUUAUAACAACAAUUAACUC [Alarm 10 - Jieux - Sensor, turn-off variant 1] (Eterna round: R97, puzzle: Sensor, turn-off variant 1)
apparent KD of MS2 coat protein (input ligand: FMN 200 uM): 14.6 nM
apparent KD of MS2 coat protein (input ligand: none): 13.2 nM

GAGUUAGCGUGUGGAAUAUACAUGAGGAUCACCCAUGUUAGCUUAUAUAUUGCUCGUCUUAUAACAACAAUUAACUG [Mod JX-Electric-eye3] (Eterna round: R97, puzzle: Sensor, turn-off variant 1)
apparent KD of MS2 coat protein (input ligand: FMN 200 uM): 138 nM
apparent KD of MS2 coat protein (input ligand: none): 143 nM

GAUAAGGUAGGAUAUACGAAUAAAAAGGGUAGAAGAAGAACACAUGAGGAUCACCCAUGUAGAAGGACCAAUAG [Mat - Exclusion 2 - Mod of my Tesla design - D24] (puzzle: Exclusion 2)
apparent KD of MS2 coat protein [2]: 37.9 nM
apparent KD of MS2 coat protein [3]: 19.7 nM
apparent KD of MS2 coat protein [4]: 16.5 nM
